Laboratory results taken from patent publication US11110182B2, “Multifunctional RNA nanoparticles and methods for treating cancer and therapeutic resistant cancer” (University of Cincinnati, priority 2016, dated 2021).

B1: pRNA-HER2apt-siMED1: 3-WJ pRNA nanoparticle bearing a HER2-targeting RNA aptamer and two different MED1 siRNAs; strands p1 SEQ ID NO: 3, p2 SEQ ID NO: 4 (nucleic acid)
chain 1: GGACAGUGAAAGUGAGUCAAAGGAUCAAUCAUGGCCAAAGAUGUUACUUUGAGAGCCUU
chain 2: GGCUCUCAAAGUAACAUCUAAGGCCAUGUGUAUGUGGGGGGAGGACGAUGCGGUCUGCUGUGCUUGAUAUGCCCCAGACGACUCGCCCCCCACAUACUUUGUUGAUCCAAUGACUCACUUUCACUGUCCUU
modifications: 2'-F modification; third strand may lack entry; pRNA-HER2apt-siMED1, p1; pRNA-HER2apt-siMED1, p2
B2: pRNA-HER2apt^mut-siMED1: control pRNA nanoparticle with mutant HER2 aptamer; strands p1 SEQ ID NO: 5, p2 SEQ ID NO: 6 (nucleic acid)
chain 1: B1 chain 1
chain 2: GGCUCUCAAAGUAACAUCUAAGGCCAUGUGUAUGUGGGAUGAGGAGUAUGAAGAUACCUGUACUUGAUAUGCCCCAGACGACAUUCCCCCCACAUACUUUGUUGAUCCAAUGACUCACUUUCACUGUCCUU
modifications: pRNA-HER2apt(mut)-siMED1, p1; pRNA-HER2apt(mut)-siMED1, p2

Assays:
MED1 = MED1 protein level by western blotting in BT474 cells; type: cell-based, human; settings: 48 h; for MED1 protein level after transfection with lipofectamine 2000: BT474, transfected
Description: (§1) FIG. 3A) BT474 cells were incubated with 10 μg/mL control and pRNA-HER2apt-siMED1 nanoparticles for 48 h, and MED1 mRNA level was determined by real-time PCR. FIG. 3B) BT474 cells were incubated directly with (as indicated by -) or transfected with indicated pRNAs using lipofectamine 2000. At 48 h post treatment, MED1 protein levels were determined by western blotting. FIG. 3C) BT474 cells were treated with 10 μg/mL pRNA nanoparticles for 48 h and assayed for cell viability by MTT assay. FIG. 3D) Cells were treated as above and seeded for migration, and FIG. 3E) invasion transwell assays. Scale bar: 50 μm. FIG. 3F) After pRNA treatment for 48 h, the mRNA levels of ERα target genes TFF-1, FIG. 3G) c-Myc, and FIG. 3H) cyclin D1 in BT474 cells were determined by real-time PCR.
FIG. 7A) Six HER2-targeting RNA aptamers were selected from previous literatures, and their secondary structures were predicted using Srna-fold software. FIG. 7B) Six p2 strands containing the six different HER2 RNA aptamers were synthesized and annealed with the same p1 strand to generate six different pRNA-HER2apt-MED1 siRNA nanoparticles, respectively, followed by examination using 8% native PAGE gel electrophoresis. FIG. 7C) BT474 cells were treated with above pRNA nanoparticles for 48 h, and then MED1 protein level was determined by western blotting. […] FIG. 7D) 1 μg pRNA nanoparticles were incubated with recombinant Dicer enzyme (Genlantis) at 37° C. for 12 h, the product was separated by 8% native PAGE gel.
FIG. 9A) BT474 cells were treated with different concentrations of pRNA nanoparticles as indicated for 48 h. After that, MED1 protein level was determined by western blots, and FIG. 9B) the cell viability was determined by MTT assay.
Cell culture. Human breast cancer luciferase-overexpressing BT474 and MDA-MB-231 cells were maintained in DMEM medium (Hyclone, Thermo Scientific) supplemented with 10% fetal bovine serum (FBS, Sigma) and 1% penicillin/streptomycin (Corning) at 37° C. in a humidified atmosphere with 5% CO2.^53 • Generation of pRNA nanoparticles. The two strands of pRNA were synthesized with the DNA templates, which were amplified with overlapping primers (Sigma) by PCR methods, using a T7 promoter-controlled in vitro RNA transcription system as previously described^33 (Table 1). All the CTP and UTP used for synthesis of the pRNA nanoparticles were 2′-fluoro modified, except the control unmodified pRNA nanoparticles used in the stability assays. Following an overnight transcription at 37° C., RNA strands were purified using RNA clean and concentrator kits (ZYMO research) and examined by 8 M urea denatured 8% PAGE gel. pRNA nanoparticles were assembled by mixing the equal molar amounts of p1 and p2 strands and gradually annealing from 90° C. to 20° C. in 1×RNA annealing buffer containing 50 mM Tris-HCl (pH 7.5), 50 mM NaCl and 1 mM EDTA on a PCR machine. […] The hydrodynamic diameter and Tm value of pRNA nanoparticles were determined using dynamic light scattering and TGGE assay, respectively, as previously described.^54 The AFM imaging of the pRNA nanoparticles was performed at the University of Nebraska Medical Center imaging facility as previously reported.^55 Briefly, the pRNA nanoparticles (5 μL) were deposited on APS modified mica ^56 for a total of 2 min of incubation time. […]

BT474 cells = experiment: Transwell migration and invasion assay, BT474 cells; type: cell-based, human; settings: for invasion ability: Matrigel-coated transwell
Description: as §1
FIG. 4A) BT474 cells were treated with pRNA nanoparticles in combination with vehicle or 1 μM 4-hydroxy-tamoxifen (4-OHT) as indicated for 48 h, and assayed for cell viability by MTT assay. FIG. 4B) Cells were treated as above and the migration and FIG. 4C) invasion capabilities were examined. FIG. 4D) Cells were treated as above and assayed for in vitro mammosphere formation. FIG. 4E) The number of mammospheres was counted, and FIG. 4F) the mammosphere size was calculated. Scale bar: 10 μm.
FIG. 11. […] BT474 cells were treated with pRNA nanoparticles alone or together with 1 μM 4-hydroxy-tamoxifen (4-OHT) for 48 h. Cell migration and invasion were then examined using transwell assay. Photos were recorded using an Olympus SZX12 microscope. Scale bar: 100 μm.
Migration and metastasis assay. The 8-μm-pore-size polycarbonate membrane, which separates the two chambers of a 6.5-mm Transwell (Costar), was coated with or without 1:8 DMEM-diluted Matrigel (Corning). Transwell assay was performed as previously described.^57 Briefly, BT474 cells were treated with pRNAs alone or together with 4-hydroxy-tamoxifen (4-OHT) for 48 h and starved with serum-free DMEM containing 0.2% BSA overnight. On the next day, cells were collected and 2×10^5 cells were seeded to the upper chamber of Transwell. The lower chamber was filled with 600 μL DMEM medium containing 10% FBS. After incubation at 37° C. for 24 h, cells on the membranes were fixed and stained with 0.1% crystal violet in 20% ethanol solution. Cells at top side of membranes were removed completely, and cells at the bottom side were examined with an Olympus SZX12 microscope and counted. • Mammosphere culture and breast cancer stem cell analyses. BT474 cells were treated with pRNAs for 48 h. Then, cells were suspended in DMEM/F12 medium supplemented with 1×B27 (Thermo Fisher), 20 ng/mL bFGF and 20 ng/mL EGF (R&D), and added into 24-well ultralow attachment plates. After treatment with or without 1 μM 4-OHT for 7 days, mammosphere formation was recorded using an Axiovert S100 TV inverted microscope (Zeiss). Xenograft tumor tissues were cut into small pieces and digested with trypsin and collagenase at 37° C. for 1 h, and tumor cells were collected and rinsed with pre-cold PBS. All cells were stained with FITC-conjugated anti-CD44 antibody and PE-conjugated anti-CD24 antibody (BD Pharmingen) in the dark on ice for 30 min. After resuspension with 0.5 mL PBS buffer, CD44^+/CD24^−/low cell population was analyzed by flow cytometry. • Orthotopic xenograft breast tumor mouse model, in vivo imaging and anti-tumor therapy. […]

[1] = BT474, in combination with 1 μM 4-hydroxy-tamoxifen, 48 h

Molecule | dose dependence of decrease of MED1 protein level (MED1; BT474, different concentrations) | MED1 protein level (MED1; BT474, direct incubation) | MED1 protein level after transfection with lipofectamine 2000 (MED1) | invasion ability (BT474 cells; BT474, 48 h treatment) | migration ability (BT474 cells; BT474, 48 h treatment, transwell without Matrigel) | effect on tamoxifen inhibition of invasion (BT474 cells; [1]) | effect on tamoxifen inhibition of migration (BT474 cells; [1])
B1 | dose-dependent manner | greatly reduced | MED1 silencing | specifically suppressed | specifically suppressed | significantly enhanced the inhibitory effects of tamoxifen | significantly enhanced the inhibitory effects of tamoxifen
B2 |  |  | MED1 silencing | not |  |  | 
